One test concerns the target T1, mouse OPN protein (Mus musculus, UniProt P10923).
T1 construct: made in house; host or cells: Pichia (yeast), culture supernatant
As to the kind of experiment: Western blot of 1A12 against mouse OPN protein. In kind it is binding. As to the method:
(§1) 100 ug human OPN and an equal volume of Freund's adjuvant were emulsified, and injected intraperitoneally into BALB/C mice. Boost was given every two weeks at the same dose. […] The mouse spleen lymphocytes were fused with NS-1 cells using the classic PEG method. 96-well plate coated with 10 μg/ml human OPN was used for repeated screening by ELISA method to obtain hybridoma cell line 1A12 which was capable of stably expressing anti-human OPN antibody. The strain of 1A12 was amplified, and administrated to BALB/C mice in 5×10^6 cells/mouse (i.p.). The ascites was collected from the 10th day after the injection. The anti-human OPN monoclonal antibody was purified by affinity chromatography using protein A column.

Test [1] has as its system MDA-MB-435s cells. Description: Microvessel density (MVD) in tumor, CD31 staining. In kind it is in vivo, nude mice. To be noted: P<0.01. The protocol:
The tissue of the in situ tumor in mouse was isolated, and speed-frozen in liquid nitrogen. 8 um serial sections were made in a constant cold box frozen section machine, and dried for 5 min, before being fixed with acetone at −20° C. for 30 min, and then stained with IHC. Incubation with the rat anti-mouse monoclonal antibody CD31 (working concentration 1:100) was carried out at 4′C overnight. The secondary antibody was goat anti-rat IgG/PE (working concentration 1:100). After Hochest33258 contrast stain, photographs were taken under the fluorescence microscope.
The CD31 protein was mainly expressed on the membrane of the vascular endothelial cells, and was expressed in individual vascular endothelial cells and microvessel, intra-tumor microvessel could be visualized with an anti CD31 antibody (FIG. 16).

The next test has as its target T2, human OPN protein (Homo sapiens, UniProt P10451).
T2 construct: made in house; host or cells: Pichia (yeast), culture supernatant
As to the kind of experiment: Western blot of 1A12 against human OPN protein. It counts as binding. The protocol:
as §1

Test [2] deals with human vascular endothelial cell (HUVEC). As to the kind of experiment: HUVEC proliferation by 3H-TdR incorporation. It counts as cell-based. As to conditions: M200+1% BSA+OPN+antibody; 24 hours. As to the method:
HUVEC cell proliferation was measured by the ^3H-TdR incorporation method to determine the protective effect of OPN on cell survival and the inhibitory effect of the anti-OPN antibodies on the OPN protection. Each well of a 96-well plate was inoculated with 2×10^4 HUVECs and cultured in a complete medium for 24 hours. The cells were then treated as following for 24 hours: […]
iv. M200+1% BSA+OPN+murine anti-OPN antibody 1A12 v. M200+1% , BSA+OPN+human-murine chimeric anti-OPN antibody c1A12 vi. M200+1% BSA+OPN+humanized anti-OPN antibody h1A12 vii. M200+1% BSA+OPN+irrelevant antibody
24 hours later, 1 uCi/well ^3H-thymidine was added and, after being incubated at 37° C. for 6 hours, washed once with PBS. The plate was treated with ice-cold 10% trichloroacetic acid/H2O at 4° C. for 10 min, and then washed for two times with, ice-cold ddH2O. Cytolysis was conducted by adding into each well 0.1 ml of 0.5 N NaOH, 0.5% SDS at room temperature for 10 min. After adding 0.2 ml of 0.5 N HCl and mixing, the cells were collected using a multiple cell collector.

Test [3] concerns MDA-MB-435s cells. Description: Spontaneous lung metastasis in nude mice (MDA-MB-435s). In kind it is in vivo. To be noted: 5 mg/kg, 2 times per week; histological sections. As to the method: The MDA-MB-435s cells were detached and re-suspended in serum-free DMEM to the concentration of 5×10^7 cells/ml. Each group of 10 female 4 to 6-week old nude mice were anaesthetized by injection of sodium pentobarbital (ip.). Under sterile condition, the skin was sterilized, and a small incision (0.5-mm) was made in the skin over the lateral thorax below the right limb. The mammary fat pads (mfp) were exposed and MDA-MB-435s cells (5×10^6 in 100 μl DMEM) were orthotopically injected into the mfps. The cut was then closed. The animals were randomly divided into four groups, and each accepted the treatment as specified below from the day after the tumor cell inoculation:
1A12: 5 mg/kg, 2 times per week;
Control antibody: 5 mg/kg, 2 times per week.
The tumor formation in nude mice was observed once a week, the maxima of the diameter (length) and a perpendicular dimension of the tumor (width) were measured using a caliper, and the volume was calculated as follows: Volume=0.52×length×width^2. The changed tumor volumes were plotted versus the time into a tumor growth curve.
The mice were sacrificed by cervical dislocation at the end of the 10th week after inoculation. For each group, tumor tissues were isolated, fixed with 10% neutral formalin and embedded in paraffin, and the tumor tissue and lung tissue were stained with H & E for analysis. […]

Test [4] deals with MDA-MB-435s cells. As to the kind of experiment: Cell invasion assay (Transwell, Matrigel). In kind it is cell-based. As to conditions: antibody 25 μg/ml; in the presence of hOPN; 24 hours. As to the method: The assay of cell invasion was carried out using the Transwell system (Corning) with the pore size of […]. The basement membrane of the upper chamber was coated with the artificial matrix gel (Matrigel). After being dried in a flame hood, the matrigel was hydrated with DMEM at 37° C. for 1 hour. MDA-MB-435s cells were detached using 0.2% EDTA and suspended in 0.25% BSA/DMEM at the concentration of 5×10^5 cells/ml. 100 μl of the obtained cell suspension as well as the following 25 μg/nil of antibodies were respectively added into the upper chamber of each well: 1A12 (murine anti-human OPN antibody), c1A12 (human-mouse chimeric antibody), h1A12 (humanized antibody), and 23C3 (irrelevant antibody control). To lower chamber, 0.25% of BSA/DMEM (with or without OPN) was added. The system was then incubated in incubator at 37° C. for 24 hours. After that, the cells remaining in the upper chamber was wiped away using a cotton swab, and the cells penetrate through the basement membrane into the lower chamber were washed with PBS, fixed with 1% formaldehyde, and then stained with 0.5% crystal violet. The cells were counted in the field at 200× magnification under a microscope.

Entries after “also recorded” stand apart in the source; their conditions may differ.

T1 sequence (P10923 17-294): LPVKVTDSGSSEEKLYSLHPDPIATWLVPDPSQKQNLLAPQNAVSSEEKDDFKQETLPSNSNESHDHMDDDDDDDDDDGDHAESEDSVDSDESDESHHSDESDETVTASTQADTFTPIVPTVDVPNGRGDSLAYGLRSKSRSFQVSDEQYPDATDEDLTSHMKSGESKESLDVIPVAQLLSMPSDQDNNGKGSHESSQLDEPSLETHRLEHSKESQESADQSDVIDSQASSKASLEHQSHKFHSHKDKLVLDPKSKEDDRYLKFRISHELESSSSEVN
T2 sequence (P10451 17-314): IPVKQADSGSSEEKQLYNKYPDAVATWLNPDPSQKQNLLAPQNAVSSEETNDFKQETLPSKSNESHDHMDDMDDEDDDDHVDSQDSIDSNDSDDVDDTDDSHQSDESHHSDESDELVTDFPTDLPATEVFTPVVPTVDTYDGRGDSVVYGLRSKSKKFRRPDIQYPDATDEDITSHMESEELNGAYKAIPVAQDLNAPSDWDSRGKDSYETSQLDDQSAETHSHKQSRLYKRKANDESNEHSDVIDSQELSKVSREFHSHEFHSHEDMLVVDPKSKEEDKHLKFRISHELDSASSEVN

B1: 1A12: murine anti-hOPN mAb; VH SEQ ID NO: 4, VL SEQ ID NO: 6; from hybridoma 1A12 (antibody, V domains shown)
VH: QVQLEQSGPELVKPGASVKMSCKSSGYTFTTYVMHWVKQKPGQGLEWIGYINPYNDGSKYNEKFKGKATLTSDKSSNTAYMELSSLTSEDSAVYYCASHYGGSPAYWGQGTLVTVSA
VL: DILMTQTPLSLPVSLGDQASISCRSSQSLVHSNGNTYLHWYLQKPGQSPKLLIYKVSNRFSGVPDRFSGSGSGTDFTLKISRVEAEDLGVYFCSQSTHVPWTFGGGTKLEIKR
modifications: amino acid sequence of the heavy chain variable region in 1A12; amino acid sequence of the light chain variable region in 1A12
notes: murine anti-hOPN mAb; from hybridoma 1A12
For the molecule B1, the “cross-reaction with the mouse OPN protein” value with mouse OPN protein is reported as “cross-reacted”. In addition, in the test on MDA-MB-435s cells [1], the “microvessel density (MVD) in tumor versus irrelevant control” value is given as “significantly less; also recorded: effectively inhibit”. Further, the “binding to the human OPN protein” value with human OPN protein is listed as “specifically bound”. In addition, the “3H-TdR incorporation relative to the OPN group” value in test [2] is “significantly lower”. Also, in the test with MDA-MB-435s cells [3], the “number of the metastasis in lung” value is “reduced; also recorded: block tumor metastasis” and the “size of the metastasis in lung” value is reported as “reduced”. Besides, in the test with MDA-MB-435s cells [4], the “blocking of invasion of the basement membrane by MDA-MB-435s” value was “effectively block”.

(Values after patent US20100151486A1, “OSTEOPONTIN FUNCTIONAL EPITOPES, MONOCLONAL ANTIBODIES AGAINST THE EPITOPES AND USES THEREOF” (SHANGHAI NATIONAL ENGINEERING RESEARCH CENTER OF A, priority 2007, published 2010).)
